Consider three molecules from patent US20240392040A1 (AKESO HUIKE SHANGHAI, published 2024).

For one test, the target named is T1, human PD-1-mFc (human, UniProt Q15116 25-170, limits assumed).
T1 construct: not shown: mouse IgG Fc (mFc)
Kind of test: indirect ELISA, coated human PD-1-mFc. The procedure:
Then the ELISA plate coated with the antigen was washed once with PBST and then blocked with a PBS solution containing 1% BSA as a blocking solution at 37° C. for 2 h. After blocking, the ELISA plate was washed 3 times with PBST. The ELISA plate containing the test antibodies was incubated at 37° C. for 30 min and then washed 3 times with PBST.
(§1) After incubation, the plate was washed 4 times with PBST, TMB (Neogen, 308177) was added for chromogenesis in the dark for 5 min, and then a stop solution was added to terminate the chromogenic reaction. The ELISA plate was put into an ELISA plate reader immediately, and the OD value of each well in the ELISA plate was read at 450 nm. The data were analyzed and processed by SoftMax Pro 6.2.1.
(In general: In an ELISA, binding on a coated surface is turned into a signal by an enzyme label.)

For test [1], the target named is T2, PD-1 on 293T-PD1 membrane surface (full-length human PD-1 on cells) (human, UniProt Q15116 25-288).
T2 construct: whole, on cells; the Promega PD-1 effector cells are bought; also called CHO-K1-PD1 cells
T2 sequence (Q15116 25-288): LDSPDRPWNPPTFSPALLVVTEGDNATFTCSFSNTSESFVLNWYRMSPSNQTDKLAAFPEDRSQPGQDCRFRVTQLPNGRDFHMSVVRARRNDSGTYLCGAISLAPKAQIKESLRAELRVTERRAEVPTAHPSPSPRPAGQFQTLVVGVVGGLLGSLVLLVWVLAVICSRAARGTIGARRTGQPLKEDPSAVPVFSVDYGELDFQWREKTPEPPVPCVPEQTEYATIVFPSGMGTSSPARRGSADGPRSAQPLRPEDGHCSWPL
Kind of test: flow cytometry on 293T-PD1 cells. As to the method:
100 μL of 1% PBSA was then added to each well, and the mixture was centrifuged at 350×g for 5 min, followed by removal of the supernatant. […] The mixture was mixed gently and uniformly, and then incubated on ice for 1 h. 100 μL of 1% PBSA was added to each well, and the mixture was centrifuged at 350×g for 5 min, followed by removal of the supernatant. Then the plate was washed twice with 200 μL of 1% PBSA. […] The mixture was mixed well and then incubated on ice in the dark for 0.5 h. 100 μL of 1% PBSA was added to each well, and the mixture was centrifuged at 350×g for 5 min, followed by removal of the supernatant. Then the plate was washed twice with 200 μL of 1% PBSA. 400 μL of 1% PBSA was added to each well to resuspend the cell pellets, and the mixture was transferred to a flow cytometry tube for FACSCalibur assay.

The target of the next test is T3, human PD-1-mFc-Biotin (human, UniProt Q15116 25-170, limits assumed, biotin label (site not stated)).
T3 construct: not shown: mouse IgG Fc (mFc)
T3 sequence (Q15116 25-170 limits assumed): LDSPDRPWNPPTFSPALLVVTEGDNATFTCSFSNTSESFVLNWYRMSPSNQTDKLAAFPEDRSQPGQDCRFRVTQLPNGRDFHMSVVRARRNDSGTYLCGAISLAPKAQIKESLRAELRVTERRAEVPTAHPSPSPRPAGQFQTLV
Nature of the test: competitive ELISA, blocking of PD-1-mFc-Biotin binding to coated human PDL1-mFc. As to the method:
After incubation, the ELISA plate was blocked with a PBS solution containing 1% BSA at 37° C. for 2 h. After blocking, the plate was washed three times and dried. The antibody was serially diluted on a dilution plate in a 3-fold dilution ratio to achieve 7 concentrations with 80 nM as the starting concentration (at a final concentration of 40 nM), and a blank control was set. […] Then the mixture was incubated at room temperature for 10 min. Then the mixture after reaction was added to the coated ELISA plate, and the ELISA plate was incubated at 37° C. for 30 min. After incubation, the plate was washed three times with PBST and dried. An SA-HRP (KPL, 14-30-00) working solution was added, and the plate was incubated at 37° C. for 30 min. After incubation, the plate was washed four times and dried. Then TMB (Neogen, 308177) was added in the dark for chromogenesis for 5 min, and then a stop solution was added to terminate the chromogenic reaction. The ELISA plate was put into an ELISA plate reader immediately, and the OD value of each well in the ELISA plate was read at 450 nm. The data were analyzed and processed by SoftMax Pro 6.2.1.

Test [2] concerns the target T2, PD-1 on 293T-PD1 membrane surface …. Nature of the test: competitive flow cytometry on 293T-PD1 cells, competitor PDL-1-mFc 20 nM. As to the method:
1. […] 100 μL of 1% PBSA was then added to each well, and the mixture was centrifuged and washed. […] 100 μL of a 400-fold diluted FITC goat anti-mouse IgG/IgM antibody (BD, Cat. No. 555988) was added, while 100 μL of 1% PBSA was added for a blank sample. The mixture was mixed well, incubated on ice in the dark for 30 min, washed, and centrifuged. The cells were resuspended and then transferred to a sample loading tube for testing on a flow cytometer.
On the technique in general: A flow cytometer gives signals particle by particle.

For the next test, the target named is T4, human LAG3-mFc (human, UniProt P18627 23-450, limits assumed).
T4 construct: not shown: mouse IgG Fc (mFc)
T4 sequence (looked up): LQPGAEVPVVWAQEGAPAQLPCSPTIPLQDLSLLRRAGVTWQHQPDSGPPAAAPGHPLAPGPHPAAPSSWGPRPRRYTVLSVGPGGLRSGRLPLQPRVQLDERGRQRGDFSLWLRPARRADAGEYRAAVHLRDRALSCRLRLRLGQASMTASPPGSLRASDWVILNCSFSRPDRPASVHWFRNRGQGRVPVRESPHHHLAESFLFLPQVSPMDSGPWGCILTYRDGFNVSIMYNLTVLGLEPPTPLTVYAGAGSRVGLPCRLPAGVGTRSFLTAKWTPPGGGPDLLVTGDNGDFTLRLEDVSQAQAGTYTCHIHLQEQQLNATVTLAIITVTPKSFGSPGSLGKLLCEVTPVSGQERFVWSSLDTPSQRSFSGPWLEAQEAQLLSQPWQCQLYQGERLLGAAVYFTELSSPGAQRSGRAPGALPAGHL
Nature of the test: indirect ELISA, coated human LAG3-mFc. As to the method:
as §1, with “Then the ELISA plate coated with the antigen was washed once with PBST and then blocked with a PBS solution containing 1% BSA as a blocking solution at 37° C. for 2 h. After blocking, the ELISA plate was washed 3 times with PBST. The ELISA plate containing the test antibodies was incubated at 37° C. for 30 min and then washed 3 times with PBST. […] After” for “After”

Broadly, the EC50 is the concentration that produces a half-maximal response. Read a low EC50 as greater potency.

T1 sequence (Q15116 25-170 limits assumed): as the sequence (Q15116 25-170 limits assumed) above

B1: 14C12H1L1(hG1TM) (antibody, human IgG1, kappa, V domains shown)
VH: EVQLVESGGGLVQPGGSLRLSCAASGFAFSSYDMSWVRQAPGKGLDWVATISGGGRYTYYPDSVKGRFTISRDNSKNNLYLQMNSLRAEDTALYYCANRYGEAWFAYWGQGTLVTVSS
VL: DIQMTQSPSSMSASVGDRVTFTCRASQDINTYLSWFQQKPGKSPKTLIYRANRLVSGVPSRFSGSGSGQDYTLTISSLQPEDMATYYCLQYDEFPLTFGAGTKLELKR
notes: Humanized anti-PD-1 IgG1 with L234A, L235A, G237A (EU numbering)
Turning to B1, the EC50 came out at 0.02 nM with human PD-1-mFc, 5.35 nM in test [1], 2.61 nM with human PD-1-mFc-Biotin and 2.51 nM in test [2].

B2: BS-PL023C (bispecific antibody, human IgG1, kappa)
heavy: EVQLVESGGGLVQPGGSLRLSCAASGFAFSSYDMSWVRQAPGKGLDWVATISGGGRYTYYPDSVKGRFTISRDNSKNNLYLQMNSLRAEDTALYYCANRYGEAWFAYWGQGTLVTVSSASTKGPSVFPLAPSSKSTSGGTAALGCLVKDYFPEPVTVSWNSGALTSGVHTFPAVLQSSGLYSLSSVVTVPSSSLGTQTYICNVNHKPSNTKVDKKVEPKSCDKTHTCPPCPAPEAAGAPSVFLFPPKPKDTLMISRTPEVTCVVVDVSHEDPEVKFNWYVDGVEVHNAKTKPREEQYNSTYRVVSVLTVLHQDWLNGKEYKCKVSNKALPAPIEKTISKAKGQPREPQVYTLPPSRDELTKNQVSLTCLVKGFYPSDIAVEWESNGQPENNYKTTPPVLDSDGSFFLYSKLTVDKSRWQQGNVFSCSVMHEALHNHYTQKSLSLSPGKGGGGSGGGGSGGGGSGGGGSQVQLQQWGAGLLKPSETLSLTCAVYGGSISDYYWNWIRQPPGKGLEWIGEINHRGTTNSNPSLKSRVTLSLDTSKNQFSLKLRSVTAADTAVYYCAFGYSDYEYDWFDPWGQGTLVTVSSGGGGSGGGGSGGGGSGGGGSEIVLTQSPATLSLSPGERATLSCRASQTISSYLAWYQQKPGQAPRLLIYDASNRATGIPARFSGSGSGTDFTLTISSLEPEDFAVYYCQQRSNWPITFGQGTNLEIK
light: DIQMTQSPSSMSASVGDRVTFTCRASQDINTYLSWFQQKPGKSPKTLIYRANRLVSGVPSRFSGSGSGQDYTLTISSLQPEDMATYYCLQYDEFPLTFGAGTKLELKRTVAAPSVFIFPPSDEQLKSGTASVVCLLNNFYPREAKVQWKVDNALQSGNSQESVTEQDSKDSTYSLSSTLTLSKADYEKHKVYACEVTHQGLSSPVTKSFNRGEC
notes: Morrison form (IgG-scFv): an scFv at the C-terminus of each of the two heavy chains
For the molecule B2, the figures for the EC50 in the test with human PD-1-mFc, with human LAG3-mFc and with human PD-1-mFc-Biotin were 0.046 nM, 0.377 nM and 2.98 nM, respectively.

B3: Bs-PLV02 (bispecific antibody, human IgG4 S228P, kappa, F234A L235A)
heavy: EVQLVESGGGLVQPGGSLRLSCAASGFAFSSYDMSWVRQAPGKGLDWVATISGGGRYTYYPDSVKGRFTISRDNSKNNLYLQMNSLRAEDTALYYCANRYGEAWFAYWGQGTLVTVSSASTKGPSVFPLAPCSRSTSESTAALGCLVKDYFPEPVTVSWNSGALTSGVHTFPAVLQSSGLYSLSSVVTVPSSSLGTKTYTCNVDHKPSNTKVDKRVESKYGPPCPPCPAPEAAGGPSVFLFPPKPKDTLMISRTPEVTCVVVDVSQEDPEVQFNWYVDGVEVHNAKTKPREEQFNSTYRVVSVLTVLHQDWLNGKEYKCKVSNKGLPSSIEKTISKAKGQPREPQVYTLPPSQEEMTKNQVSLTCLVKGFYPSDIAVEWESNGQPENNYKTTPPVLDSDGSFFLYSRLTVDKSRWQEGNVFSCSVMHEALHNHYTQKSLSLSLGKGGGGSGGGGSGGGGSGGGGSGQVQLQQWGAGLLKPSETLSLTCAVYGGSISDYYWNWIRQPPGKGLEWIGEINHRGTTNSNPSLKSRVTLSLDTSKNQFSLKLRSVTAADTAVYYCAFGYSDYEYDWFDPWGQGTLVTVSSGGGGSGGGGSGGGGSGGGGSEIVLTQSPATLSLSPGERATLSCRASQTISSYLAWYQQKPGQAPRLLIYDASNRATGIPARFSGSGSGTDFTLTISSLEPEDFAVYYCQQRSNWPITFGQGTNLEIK
light: DIQMTQSPSSMSASVGDRVTFTCRASQDINTYLSWFQQKPGKSPKTLIYRANRLVSGVPSRFSGSGSGQDYTLTISSLQPEDMATYYCLQYDEFPLTFGAGTKLELKRTVAAPSVFIFPPSDEQLKSGTASVVCLLNNFYPREAKVQWKVDNALQSGNSQESVTEQDSKDSTYSLSSTLTLSKADYEKHKVYACEVTHQGLSSPVTKSFNRGEC
notes: as for B2
B3: the concentration for a half-maximal effect (EC50) with human PD-1-mFc was determined as 0.103 nM; in test [1], 6.87 nM; with human LAG3-mFc, 0.685 nM; in the test with human PD-1-mFc-Biotin, 5.04 nM.
